The values below come from article PMC5937523 (Biochemistry, 2017).

The target of assay [1] is T1, KDAC6 (Homo sapiens, UniProt Q9UBN7).
T1 sequence (Q9UBN7 1-1215): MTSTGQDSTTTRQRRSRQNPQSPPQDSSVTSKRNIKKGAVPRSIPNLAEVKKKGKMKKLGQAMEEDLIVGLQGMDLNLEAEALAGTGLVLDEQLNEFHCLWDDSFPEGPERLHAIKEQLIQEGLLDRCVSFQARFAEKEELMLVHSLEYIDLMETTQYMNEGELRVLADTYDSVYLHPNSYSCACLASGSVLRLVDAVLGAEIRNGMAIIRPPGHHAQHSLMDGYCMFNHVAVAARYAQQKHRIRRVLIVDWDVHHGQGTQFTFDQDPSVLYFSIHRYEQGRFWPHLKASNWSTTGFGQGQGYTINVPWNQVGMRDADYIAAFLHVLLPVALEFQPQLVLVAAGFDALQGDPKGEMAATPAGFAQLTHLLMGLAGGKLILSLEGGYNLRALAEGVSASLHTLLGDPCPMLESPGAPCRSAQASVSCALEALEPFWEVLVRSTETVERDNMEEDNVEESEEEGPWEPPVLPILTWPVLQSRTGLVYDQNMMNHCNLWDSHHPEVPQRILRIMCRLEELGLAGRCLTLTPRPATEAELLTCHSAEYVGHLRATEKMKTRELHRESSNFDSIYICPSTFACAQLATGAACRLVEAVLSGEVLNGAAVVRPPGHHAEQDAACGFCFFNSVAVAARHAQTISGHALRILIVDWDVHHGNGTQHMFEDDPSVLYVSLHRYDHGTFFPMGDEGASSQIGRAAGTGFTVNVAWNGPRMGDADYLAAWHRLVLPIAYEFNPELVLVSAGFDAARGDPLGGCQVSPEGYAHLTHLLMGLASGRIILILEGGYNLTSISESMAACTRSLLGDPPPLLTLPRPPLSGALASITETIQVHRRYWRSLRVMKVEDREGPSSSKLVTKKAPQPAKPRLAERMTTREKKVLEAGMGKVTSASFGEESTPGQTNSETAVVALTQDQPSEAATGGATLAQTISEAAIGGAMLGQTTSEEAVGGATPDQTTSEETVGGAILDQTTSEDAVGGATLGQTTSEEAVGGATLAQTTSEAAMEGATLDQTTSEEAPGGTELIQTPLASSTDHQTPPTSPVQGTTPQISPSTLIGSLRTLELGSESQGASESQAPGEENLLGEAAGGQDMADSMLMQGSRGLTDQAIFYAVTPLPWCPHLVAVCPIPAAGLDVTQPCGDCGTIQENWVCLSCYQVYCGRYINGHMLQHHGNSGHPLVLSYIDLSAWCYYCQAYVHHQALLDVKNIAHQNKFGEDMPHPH

In assay [2] the target is T2, human KDAC8 (lysine deacetylase 8) (human) (UniProt Q9BY41).
T2 sequence: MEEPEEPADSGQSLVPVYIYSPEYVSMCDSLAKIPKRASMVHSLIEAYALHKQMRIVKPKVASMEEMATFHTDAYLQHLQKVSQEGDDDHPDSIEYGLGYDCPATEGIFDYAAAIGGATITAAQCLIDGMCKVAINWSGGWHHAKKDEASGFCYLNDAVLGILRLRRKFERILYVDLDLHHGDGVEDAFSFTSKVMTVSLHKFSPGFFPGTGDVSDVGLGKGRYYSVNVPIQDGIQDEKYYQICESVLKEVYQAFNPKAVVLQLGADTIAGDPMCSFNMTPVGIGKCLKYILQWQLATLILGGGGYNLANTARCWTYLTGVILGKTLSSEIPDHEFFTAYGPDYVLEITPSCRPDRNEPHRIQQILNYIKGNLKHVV

The target in assay [3] is KDAC6 (lysine deacetylase 6) (human) (UniProt Q9UBN7).

Regarding `O=C(CCCCCCC(=O)Nc1ccccc1)NO` [SAHA, suberoylanilide hydroxamic acid], the “SAHA inhibition of KDAC6 in the presence and absence of AMC” value in assay [1] was “comparable”.

Take RG{K-ac} (peptide): the KM of steady-state deacetylation kinetics (fluorescamine assay, 25 °C) in assay [2] is above 5000 µM.

Regarding {K-ac}W (peptide), the KM of steady-state deacetylation kinetics (fluorescamine assay, 25 °C) in assay [3] is 70 µM; in assay [2], above 5000 µM.

Regarding Ac-RHK(Ac)K(Ac)-NH2 [RH{K-ac}{K-ac}], the KM of steady-state deacetylation kinetics (fluorescamine assay, 25 °C) was found to be 370 µM in assay [3] and 3100 µM in assay [2].

Turning to Ac-RHK(Ac)K(Ac)W-NH2 [RH{K-ac}{K-ac}W], the KM of steady-state deacetylation kinetics (fluorescamine assay, 25 °C) in assay [2] was found to be 1200 µM.

For Ac-RGK(Ac)W-NH2 [RG{K-ac}W], in assay [2], the KM of steady-state deacetylation kinetics (fluorescamine assay, 25 °C) stood at 2700 µM.
